Test results reported in patent publication US7407939B2, “Protein kinase inhibitors comprising ATP mimetics conjugated to peptides or peptidomimetics” (CureGenics Ltd., priority 2001, dated 2008).
Like-named read-outs stand apart in the source and are kept apart here. *1 amine or outer side, *2 acyl side, *3 side chain or, on linkers, in order; H or OH if unused. Where a SMILES comes first, the peptide text is derived from it. Where no end group is shown, it is not given here. Side-chain parts run from the residue outwards. [ ]: non-standard residue; d: D form. The star is where a group is joined. X1 = 5‑aminoethylsulfonamide isoquinoline, O=S(=O)(NCCN*)c1cccc2cnccc12; Isoquinoline5sulfonyl = O=S(=O)(c1cccc2cnccc12)*; Ethylenediamine = C(CN[*:2])N[*:1]; hLeu = CC(C)CC[C@H](N)C(=O)O; Nle = CCCC[C@H](N)C(=O)O; Orn = NCCC[C@H](N)C(=O)O; Dab = NCC[C@H](N)C(=O)O; Nva = CCC[C@H](N)C(=O)O; Abu = CC[C@H](N)C(=O)O; Dap = NC[C@H](N)C(=O)O; βAla = NCCC(=O)O

Tests used:
[1] = target: T1, PKA (Bos taurus, UniProt P00517); test: In vitro PKA kinase activity assay (kemptide / SPA beads); assay type: biochemical; settings: for inhibition at 1 µM / PKA-kinase Assay 1, % inhibition of kinase activity / PKA-kinase Assay 2, % inhibition of kinase activity: 1 μM compound concentration;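 for all read-outs here: Cell-free assay of purified PKA catalytic subunit phosphorylating the 7-mer kemptide substrate, run in MOPS buffer with magnesium acetate and BSA, with blank wells lacking enzyme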
T1 construct: purchased Promega

[2] = target: T2, PKB (Homo sapiens, UniProt P31749); test: PKB in vitro kinase activity assay (soluble His-HA-PKB / SPA bead screening); assay type: biochemical; settings: for inhibition at 1 µM / PKB-kinase (spa) Assay 1, % inhibition of kinase activity / PKB-kinase (spa) Assay 2, % inhibition of kinase activity: 1 μM compound concentration
T2 construct: His; HA; made in house
T2 sequence (P31749 whole entry, species assumed): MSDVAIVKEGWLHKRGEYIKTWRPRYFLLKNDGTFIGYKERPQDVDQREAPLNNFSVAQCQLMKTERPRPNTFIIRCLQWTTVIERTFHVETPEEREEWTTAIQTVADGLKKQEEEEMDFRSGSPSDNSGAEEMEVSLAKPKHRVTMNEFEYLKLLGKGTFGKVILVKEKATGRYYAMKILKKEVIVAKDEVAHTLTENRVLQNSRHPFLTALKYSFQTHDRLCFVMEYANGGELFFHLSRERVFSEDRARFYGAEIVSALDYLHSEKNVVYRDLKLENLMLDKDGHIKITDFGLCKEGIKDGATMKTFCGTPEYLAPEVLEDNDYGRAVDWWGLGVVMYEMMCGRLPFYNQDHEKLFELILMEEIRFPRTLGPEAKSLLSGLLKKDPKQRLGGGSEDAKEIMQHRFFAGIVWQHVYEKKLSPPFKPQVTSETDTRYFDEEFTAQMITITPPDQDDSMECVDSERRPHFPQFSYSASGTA

PKB-kinase (spa) Assay 1, % inhibition of kinase activity ([2]; Assay 1) [%]	PKB-kinase (spa) Assay 2, % inhibition of kinase activity ([2]; Assay 2) [%]	Compound	further results
		CCCC[C@H](NC(=O)[C@H](CCCNC(=N)N)NC(=O)[C@@H]1CCCN1C(=O)[C@@H](N)CCCNC(=N)N)C(=O)N[C@@H](CCC(=O)NCC(=O)NCCNS(=O)(=O)c1cccc2cnccc12)C(=O)N[C@@H](CCCN)C(=O)N[C@@H](Cc1ccccc1)C(N)=O [60020-59] (H-RPR[Nle]E([Gly-Ethylenediamine-Isoquinoline5sulfonyl])[Orn]F-NH2; N-terminus assumed)	inhibition at 1 µM ([1]; Assay 1, read-out: PKA-kinase Assay 1, % inhibition of kinase activity): 92%; inhibition at 1 µM ([1]; Assay 2, read-out: PKA-kinase Assay 2, % inhibition of kinase activity): 93%; IC50 ([1]; Table 6, most active compounds from plate TY-60020, read-out: IC50 PKA): 200 nM; inhibition at 1 µM ([2]; Assay 1, read-out: PKB-kinase (spa) Assay 1, % inhibition of kinase activity): 62%; inhibition at 1 µM ([2]; Assay 2, read-out: PKB-kinase (spa) Assay 2, % inhibition of kinase activity): 75%; IC50 ([2]; Table 6, most active compounds from plate TY-60020, read-out: IC50 PKB): 300 nM
66	66	60020-49: Arg-Pro-Arg-Abu-Glu(Gly-5-aminoethylsulfonamide isoquinoline)-Dab-Phe (RPR[Abu]E([Gly-X1])[Dab]F)	PKA-kinase Assay 1, % inhibition of kinase activity ([1]; Assay 1): 95%; PKA-kinase Assay 2, % inhibition of kinase activity ([1]; Assay 2): 95%
63	69	60020-33: Arg-Pro-Arg-Dap-Glu(Gly-5-aminoethylsulfonamide isoquinoline)-Dab-Phe (RPR[Dap]E([Gly-X1])[Dab]F)	PKA-kinase Assay 1, % inhibition of kinase activity ([1]; Assay 1): 98%; PKA-kinase Assay 2, % inhibition of kinase activity ([1]; Assay 2): 98%
13	15	60020-77: Arg-Pro-Arg-Orn-Glu(bAla-5-aminoethylsulfonamide isoquinoline)-Ala-Phe (RPR[Orn]E([βAla-X1])AF)	
		RPRRSSR [AR 60003-64, Arg-Pro-Arg-Arg-Ser-Ser-Arg]	Activity PKB ([2]; Table 3, linear 7-mer peptides): Not active
		C[C@@H](O)[C@H](NC(=O)[C@H](CCCNC(=N)N)NC(=O)[C@@H]1CCCN1C(=O)[C@@H](N)CCCNC(=N)N)C(=O)N[C@@H](CO)C(=O)N[C@@H](CCC(=O)NCCNS(=O)(=O)c1cccc2cnccc12)C(=O)N[C@@H](Cc1ccccc1)C(N)=O [compound 6014] (H-RPRTSE([Ethylenediamine-Isoquinoline5sulfonyl])F-NH2)	IC50 ([2]; chimeric PTR compounds (peptide conjugated to isoquinoline small molecule), read-out: PKB IC50): 25000 nM
31	52	60020-72: Arg-Pro-Arg-Dap-Glu(bAla-5-aminoethylsulfonamide isoquinoline)-Nva-Hol (RPR[Dap]E([βAla-X1])[Nva][hLeu])	
19	27	60020-90: Arg-Pro-Arg-Nle-Glu(bAla-5-aminoethylsulfonamide isoquinoline)-Dab-Hol (RPR[Nle]E([βAla-X1])[Dab][hLeu])	
37	57	60020-46: Arg-Pro-Arg-Orn-Glu(Gly-5-aminoethylsulfonamide isoquinoline)-Ala-Hol (RPR[Orn]E([Gly-X1])A[hLeu])	
		RPRMSSF-NH2 (C-terminus assumed) [AR 60003-50, Arg-Pro-Arg-Met-Ser-Ser-Phe]	IC50 ([2]; Table 3, linear 7-mer peptides, read-out: Activity PKB): 2500 nM
5	37	60020-16: Arg-Pro-Arg-Orn-Glu(5-aminoethylsulfonamide isoquinoline)-Nva-Hol (RPR[Orn]E(X1)[Nva][hLeu])	
40	59	60020-92: Arg-Pro-Arg-Nle-Glu(bAla-5-aminoethylsulfonamide isoquinoline)-Orn-Hol (RPR[Nle]E([βAla-X1])[Orn][hLeu])	
11	15	60020-20: Arg-Pro-Arg-Abu-Glu(5-aminoethylsulfonamide isoquinoline)-Orn-Hol (RPR[Abu]E(X1)[Orn][hLeu])	
17	19	60020-63: Arg-Pro-Arg-Nle-Glu(Gly-5-aminoethylsulfonamide isoquinoline)-Nva-Phe (RPR[Nle]E([Gly-X1])[Nva]F)	
